From paper PMC8811534

Target: hAGO2 (human, UniProt Q9UKV8 1-859)
Experiment: EMSA

Chain of hAGO2 (Q9UKV8 whole entry): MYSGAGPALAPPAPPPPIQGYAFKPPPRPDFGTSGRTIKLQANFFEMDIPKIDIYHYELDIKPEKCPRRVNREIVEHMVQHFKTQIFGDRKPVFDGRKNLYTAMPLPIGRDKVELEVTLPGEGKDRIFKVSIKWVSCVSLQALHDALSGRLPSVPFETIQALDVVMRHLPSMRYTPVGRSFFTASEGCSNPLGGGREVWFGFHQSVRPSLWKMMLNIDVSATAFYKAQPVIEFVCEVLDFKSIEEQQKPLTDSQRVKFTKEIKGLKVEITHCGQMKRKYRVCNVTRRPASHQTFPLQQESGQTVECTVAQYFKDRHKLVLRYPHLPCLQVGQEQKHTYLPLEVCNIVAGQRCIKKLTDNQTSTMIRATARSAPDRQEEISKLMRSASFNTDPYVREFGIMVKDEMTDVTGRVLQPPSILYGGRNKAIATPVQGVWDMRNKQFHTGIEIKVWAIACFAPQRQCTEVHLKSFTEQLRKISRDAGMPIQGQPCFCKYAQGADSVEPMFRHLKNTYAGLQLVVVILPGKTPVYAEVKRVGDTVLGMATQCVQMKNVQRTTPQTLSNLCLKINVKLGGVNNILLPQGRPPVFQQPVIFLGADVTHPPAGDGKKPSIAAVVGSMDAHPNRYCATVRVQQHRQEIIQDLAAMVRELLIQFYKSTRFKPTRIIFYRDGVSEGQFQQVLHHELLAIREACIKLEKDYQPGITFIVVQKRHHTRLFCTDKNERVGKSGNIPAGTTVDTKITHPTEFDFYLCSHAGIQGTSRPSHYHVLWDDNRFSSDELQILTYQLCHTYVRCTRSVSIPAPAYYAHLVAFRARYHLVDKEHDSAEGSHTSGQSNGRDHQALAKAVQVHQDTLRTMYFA

B1: 5'Cy5-HIS-SARS2-1 DNA duplex (dsDNA)
DNA 1: AGCCTTTACCTCCATTAGCATAGACA
DNA 2: TGTCTATGCTAATGGAGGTAAAGGCT
binding result: binds
